Experimental data published in the supplement of paper PMC9170038.

System: MS2 coat protein
Assay: apparent KD of MS2 coat protein; designed switch direction (-1 OFF switch, 1 ON switch): 1; higher = weaker reporter binding
Method in brief: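 Designed RNA switches with common flanks were transcribed on Illumina chips by stalled E. coli RNA polymerase and titrated with SNAP-549-labelled MS2 coat protein, from 0.7 or 1.5 nM doubling to 3 µM, in Tris-HCl pH 7.5 buffer with KCl, MgCl2, BSA, DTT, tRNA and Tween-20. Steps lasted 0.8–1.5 h (lowest) to 10–20 min (highest). Titrations ran without input, with 200 uM small-molecule ligand, or with an oligonucleotide input. Normalised cluster fluorescence was curve-fitted, and apparent KD is the per-design median over clusters.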

[1] = input ligand: microRNA oligo, concentration not stated
[2] = Eterna round: R95, input ligand: FMN 200 uM
[3] = Eterna round: R95, input ligand: microRNA oligo, concentration not stated
[4] = Eterna round: R95, input ligand: none

Sequence	apparent KD of MS2 coat protein (input ligand: FMN 200 uM)	apparent KD of MS2 coat protein [1]	apparent KD of MS2 coat protein (input ligand: none)	apparent KD of MS2 coat protein [2]	apparent KD of MS2 coat protein [3]	apparent KD of MS2 coat protein [4]
AUAUACUGGGUAGGAUAUCUAGGAUAUGGGAAAGACUAAGUCUGUAGGUCACCUAACCCAGAUGGAGAGAAGGACCCAACACAC [pwkr ssNG2 2FMN + F9.42] (Eterna round: R96, puzzle: Same State NG 2)	16.1 nM	5.2 nM	42.6 nM	–	–	–
AUCAAAACAAGUUGCAGUGUUCGUCUUUCACAUGAGGAUCACCCAUGUAAUAGCCCAGCGGAAGCACUCGGGCCACC [Arzasola] (puzzle: Sensor for hsa-mir-208a)	–	–	–	26.8 nM	28.1 nM	31.2 nM
AUCAAAGCGUGAGGAUAUAUGGGAACACGAGUCGUAGAAGGUACGUCAAUACAUGAGGAUCACCCAUGUAAAGAGGAGAACCUC [Eternabot solution 33] (Eterna round: R96, puzzle: Same State NG 1)	60.1 nM	32.9 nM	45.2 nM	–	–	–
AUCAAUCUAUCUGAGGAUAUCAUGAAAUAAACAUGAGGAUCACCCAUGUGCAGGAAAACUGCAUAUGAGAAGGCAGAUAGAUUGA [salish99_ss2_r3_019] (puzzle: Same State 2)	–	–	–	63.9 nM	323 nM	879 nM
AUCCCAUCGGGAGGAUAUGGAACCUUAUUGGUUCCAGAAGGUCCAACAUGAGGAUCACCCAUGUGGGAGUGGUCUAAUGACCAC [Fiskers NG1ss - 29] (Eterna round: R96, puzzle: Same State NG 1)	222 nM	272 nM	470 nM	–	–	–
AUCCCAUCGGGAGGAUAUGGAACCUUAUUGGUUCUAGAAGGUCCAACAUGAGGAUCACCCAUGUGGGAGUGGUCUAAUGACCAC [SS NG10LRO01] (Eterna round: R96, puzzle: Same State NG 1)	190 nM	208 nM	414 nM	–	–	–
AUGCAGCUACCACAGGAUAUACGUGGAUCGACAUGAGGAUCACCCAUGUAUAUCCUAAUAAUUGCGUAGAAGGGUGGUCAGCUGC [Tezaqutete] (puzzle: Same State 2)	–	–	–	–	696 nM	–
AUUAAACAUGAGGAUCACCCAUGUCAACAAAGUCGAGGAUAUGGGCAUAUUAUCUUAUAACCAGAAGGCGAAUAAU [salish99_ss1_r3_086] (puzzle: Same State 1)	–	–	–	–	155 nM	–
AUUAAUAAUCUAGGAUAUCACGUCGAAUAGACGUGAGAAGGAGAUCAUAACAUGAGGAUCACCCAUGUAUUACAUGAAGUUAAU [SSNG1/7-B1] (Eterna round: R96, puzzle: Same State NG 1)	27.5 nM	29.9 nM	34.8 nM	–	–	–
AUUACUAACAUAGGAUAUCAUGCGAAAAUUGCGUGAGAAGGGUGGACGCUGUCAUUCACGGAAGACAUGAGGAUCACCCAUGUC [SameState NG1 #73] (Eterna round: R96, puzzle: Same State NG 1)	170 nM	70.5 nM	119 nM	–	–	–
AUUAUACAUGAGGAUCACCCAUGUAAUUAAUUAAUUAAGAUCUAGGAUAUCAGCUCGAUUAGAGCUGAGAAGGAGAUCACAUGU [SSNG3/20-C2] (Eterna round: R96, puzzle: Same State NG 3)	–	21.2 nM	–	–	–	–
AUUAUUUAUGCAGGAUAUGAUUAACAUGAGGAUCACCCAUGUGGUGUUGUGAGUAAGGAGAGUGAUCAGAAGGGCAUUUUUUUC [JMF's solution 59] (Eterna round: R96, puzzle: Same State NG 2)	381 nM	214 nM	397 nM	–	–	–
AUUAUUUCAUGAGGAUAUGGCACCUUAUUGGUGCCAGAAGGCAUGUCUAUUGACAUGAGGAUCACCCAUGUAUUAUAUUAUAUA [Eli NG1ss - 88] (Eterna round: R96, puzzle: Same State NG 1)	57.4 nM	658 nM	493 nM	–	–	–
AUUCGUUUGAUAGGAUAUCACCUUACAUGAGGAUCACCCAUGUUCACCACGCUGGUUUUUCAUACUGAGAAGGAUCUUGAUGAC [JR_SSNG2_Sub007] (Eterna round: R96, puzzle: Same State NG 2)	50.5 nM	45.6 nM	51.4 nM	–	–	–
AUUGCUAGCACAGGAUAUCAUGCGAAAAUUGCGUGAGAAGGGUGGACGCUGUCAUUCACGGAGGACAUGAGGAUCACCCAUGUC [SameState NG1 #78] (Eterna round: R96, puzzle: Same State NG 1)	54.4 nM	53.4 nM	62.6 nM	–	–	–
AUUGCUAUCACAGGAUAUCAUGCGGAAAUCGCGUGAGAAGGGUGGACUCUGUCAUUCACGGAGGACAUGAGGAUCACCCAUGUC [SS NG10LRO17] (Eterna round: R96, puzzle: Same State NG 1)	612 nM	18.4 nM	36.3 nM	–	–	–

Sequence	apparent KD of MS2 coat protein (input ligand: FMN 200 uM)	apparent KD of MS2 coat protein [1]	apparent KD of MS2 coat protein (input ligand: none)	apparent KD of MS2 coat protein [2]	apparent KD of MS2 coat protein [3]	apparent KD of MS2 coat protein [4]
CACAUGAGGAUCACCCAUGUGAGGCGGCAAUAAAGCCGCGCACAGGAUAUAGCGCUAUGAAUGCGCUAGAAGGGUGAUUAGAAC [Reines] (Eterna round: R96, puzzle: Same State NG 3)	240 nM	59.9 nM	36.5 nM	–	–	–
CACGCCUCGGUAGGAUAUGAGGUGCCAUAGGCAACAGCCUAUGGACAUGAGGAUCACCCAUGUCCUCAGAAGGGCCAGGCGUGA [Rexeorar] (Eterna round: R96, puzzle: Same State NG 2)	25.9 nM	66.3 nM	114 nM	–	–	–
CAGAGCCCAUGGGCCUGACAUGAGGAUCACCCAUGUGGCUUUGAGGAUAUAAGCGGAAACACCGCUUAGAAGGCGAAGCCUAAC [Atxerati] (Eterna round: R96, puzzle: Same State NG 3)	79.5 nM	18.7 nM	34.3 nM	–	–	–
CAGCGCUGUUGAGAGGAUAUGCGGUGAUGGACAUGAGGAUCACCCAUGUUAGCGACAGCAUUACGGUAGAAGGCUCCACAGCUGC [Soteed Omei mod 14] (puzzle: Same State 2)	–	–	–	–	17.9 nM	–
CAUCGUUUGAUAGGAUAUCGCUAUACAUGAGGAUCACCCAUGUUUACCACGCUGGUUUUUCAUACCGAGAAGGAUUCUGAUGAG [salish99_SSNG02_r04_012] (Eterna round: R96, puzzle: Same State NG 2)	55.3 nM	38.3 nM	47.6 nM	–	–	–
CCAACAUACAAUUUAAGAUCACAUGAGGAUCACCCAUGUAUGCAGGAUAUCAGCUCGAAUAGAGCUGAGAAGGGCAAUUUAAUU [SSNG3/1-A1] (Eterna round: R96, puzzle: Same State NG 3)	94.7 nM	127 nM	262 nM	–	–	–
CCAUAGUACAAUUUAGAUCUACAUGAGGAUCACCCAUGUACUGAGGAUAUCAGCUCGUUUAGAGCUGAGAAGGCAGAAGUACUU [SSNG3/6-A3] (Eterna round: R96, puzzle: Same State NG 3)	34.2 nM	64.8 nM	102 nM	–	–	–
CCGAUGAUAGGACAGGAUAUGACUGUCGUCACAUGAGGAUCACCCAUGUCCCGGCAAUGCCACCGUUAGAAGGGUCCUAUCUCGG [Orraais] (puzzle: Same State 2)	–	–	–	–	11.9 nM	–
CCGAUUUAUGGAGGAUAUGGAGCCUUAUUGGCUCCAGAAGGUCAAUAAACAUGAGGAUCACCCAUGUCGGCGGUCAAUAGACCG [Eli NG1ss - 71] (Eterna round: R96, puzzle: Same State NG 1)	103 nM	84.4 nM	180 nM	–	–	–
CCGCGCUGUCGAGAGGAUAUGCGGUGAUGGACAUGAGGAUCACCCAUGUUAGCGAUAGCAUUACUGUAGAAGGCUCUACGGCGGC [JL-ss2-3.09 ViennaUCT mod] (Eterna round: R96, puzzle: Same State 2)	11.2 nM	10.2 nM	16.3 nM	–	–	–
CCGCGCUGUCGAGAGGAUAUGCGGUGAUGGACAUGAGGAUCACCCAUGUUAGCGAUAGCAUUACUGUAGAAGGCUCUACGGCGGC [JL-ss2-3.09 ViennaUCT mod] (puzzle: Same State 2)	–	–	–	12.2 nM	10.4 nM	11.9 nM
CCGCUCCGUGGAGGAUAUGGGCCUGCCCGGGAUACCGAGCCUAACACAUGAGGAUCACCCAUGUCCCAGAAGGCCGCUGGAGCC [Inusaron] (Eterna round: R96, puzzle: Same State NG 2)	30.7 nM	52.8 nM	90.7 nM	–	–	–
CCGCUCCGUGGAGGAUAUGGGCCUGCCCGGGAUACCGGGCCUAACACAUGAGGAUCACCCAUGUCCCAGAAGGCCGCUGGAGCC [Rasoleis] (Eterna round: R96, puzzle: Same State NG 2)	18.9 nM	85.1 nM	58.2 nM	–	–	–
CCGGUUUAUGGAGGAUAUGGAGCCUUAUUGGCUCCAGAAGGCUAAUAACAUGAGGAUCACCCAUGUCCGGCGGUCAAUAGACCG [Eli NG1ss - 57] (Eterna round: R96, puzzle: Same State NG 1)	21.7 nM	69.8 nM	90.5 nM	–	–	–
CCGUAAUAUGGAGGAUAUGGAGCCUUAUUGGCUCCAGAAGGUCAAAACACAUGAGGAUCACCCAUGUCGGCGGUCAAUAGACCG [Eli NG1ss - 75] (Eterna round: R96, puzzle: Same State NG 1)	31.4 nM	42.9 nM	45.3 nM	–	–	–
CCGUUGAUAGGACAGGAUAUGACUGUCGUCACAUGAGGAUCACCCAUGUCCCGGCAAUGCCACCGUUAGAAGGGUCCCGUCUCGG [Beenraor] (puzzle: Same State 2)	–	–	–	–	16.9 nM	–
